Laboratory results reported in patent US20150056189A1 (Daiichi Sankyo, published 2015).
Numbering of substitutions follows the chain as printed. In names and notes the source's numbering stands.

B1: K3-1115 antibody (antibody, human IgG2, kappa, V domains shown)
VH: EVQLVESGGGLVQPGGSLRLSCAASGFNFNDYFMNWVRQAPGKGLEWVAQIRNKIYTYATFYAASVKGRFTISRDNAKNSLYLQMNSLRAEDTAVYYCARSLTGGDYFDYWGQGTLVTVSS
VL: EILMTQSPATLSLSPGERATLSCRASQSVTISGYSFIHWYQQKPGQAPRLLIYRASNLASGIPARFSGSGSGTDFTLTISSLEPEDFALYYCQQSRKSPWTFGQGTKVEIKR
notes: Humanized form of the rat antibody #32A1; Full-length IgG made in FreeStyle 293F cells; Used as the control antibody; In SPR it was captured through an anti-human IgG antibody; also called h#32A1-H1-1/L2-15
B2: K3-1115/T103E antibody (antibody, human IgG2, kappa, V domains shown)
VH: B1 VH with T103E
VL: B1 VL
notes: Full-length IgG made in FreeStyle 293F cells

Key:
[1] = biological target: T1, human Siglec-15 V-set domain (human, UniProt Q6ZMC9 39-165); assay: SPR, Biacore T200; antibody captured via anti-human IgG on CM5 chip, antigen as analyte, 1:1 binding model
T1 construct: range 39-165; Purified to a single 14 kDa band; Used as the analyte in SPR; also called hSiglec-15 (39-165) V-set domain; human Siglec-15 protein
T1 sequence (looked up): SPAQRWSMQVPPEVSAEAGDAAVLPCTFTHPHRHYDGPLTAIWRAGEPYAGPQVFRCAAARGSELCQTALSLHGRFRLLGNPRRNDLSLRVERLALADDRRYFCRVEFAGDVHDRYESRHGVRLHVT
Experimental: (§1) As a running buffer, HBS-EP+ (10 mM HEPES pH 7.4, 0.15 M NaCl, 3 mM EDTA, 0.05% surfactant P20) was used. On the chip having the antibody bound thereto, a dilution series of an antigen solution (0.003 to 7 nM) was added at a flow rate of 90 μL/min for 233 seconds, and subsequently, the dissociation phase was monitored for 2000 to 3600 seconds. As a regeneration solution, 3 M MgCl₂ was added at a flow rate of 10 μL/min for 30 seconds. In the analysis of data, a 1:1 binding model of analysis software (Biacore T200 Evaluation software, version 1.0) was used, and an association rate constant (kon), a dissociation rate constant (koff), and a dissociation constant (KD; KD=koff/kon) were calculated.

[2] = biological target: T1, human Siglec-15 V-set domain; assay: SPR, Biacore T200; ratio of KD values against K3-1115
Experimental: as §1

| Kd [1] | fold enhancement of affinity compared with K3-1115 [2] | Binder |
| --- | --- | --- |
| 0.26 nM | – | B1 |
| 0.0041 nM | ~60 times | B2 |
